For the experiment, the target named is Interleukin-1 receptor on human fibroblasts (NHDF, normal human dermal fibroblasts) (human). Nature of the experiment: cell-based or functional assay.
Chain of Interleukin-1 receptor on human fibroblasts (NHDF, normal human dermal fibroblasts) (human) (P14778 18-569): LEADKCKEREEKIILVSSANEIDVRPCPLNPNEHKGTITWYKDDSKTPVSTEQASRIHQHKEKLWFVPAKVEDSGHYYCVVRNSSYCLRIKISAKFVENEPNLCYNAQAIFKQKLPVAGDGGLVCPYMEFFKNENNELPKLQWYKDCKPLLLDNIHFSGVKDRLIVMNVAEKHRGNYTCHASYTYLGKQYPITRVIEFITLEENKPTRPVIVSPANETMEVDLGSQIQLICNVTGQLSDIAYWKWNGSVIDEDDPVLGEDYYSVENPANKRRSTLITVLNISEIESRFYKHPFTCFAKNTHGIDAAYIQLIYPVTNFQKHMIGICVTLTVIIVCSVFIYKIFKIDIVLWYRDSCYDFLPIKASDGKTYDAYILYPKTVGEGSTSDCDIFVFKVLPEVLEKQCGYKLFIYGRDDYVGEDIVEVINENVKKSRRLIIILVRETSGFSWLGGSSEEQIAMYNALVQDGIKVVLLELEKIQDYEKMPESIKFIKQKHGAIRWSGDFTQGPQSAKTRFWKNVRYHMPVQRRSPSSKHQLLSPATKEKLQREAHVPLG

Substance “IL-1 Hy1 Receptor Antagonist, non-tagged / preparation not specified (from UniProt Q9UBH0 1-155) (ligand)” displayed an inhibition of IL-1β stimulated PGE2 production in CCD 1098 human fibroblast cells (PGE2 ELISA) of 40 to 60 % inhibition.

(Values after patent US6541623.)
